Results reported in the RNAGym collection of RNA variant scans (doi:10.7554/elife.90254).

B1: LINE1-full (parent)
chain: UACGUAGGUGGUUUUCCCCUGAUAGUGCUAAGGGGGCCUGGAAGUUUGGACUGGGCAGAGCUCAACACAGCGUGGCAAAGUGGCUGUGGCUAGACUGCCUCUCUGGAUUCCUCGUCACUCAGCAGGGCAUCUCUGAGAGAAAUGCC

Variants of: B1
Assay: self-cleavage, relative activity (ratio to wild type); higher = more cleavage; in vitro, sequencing; the parent is a self-cleaving ribozyme

Row | Variant | self-cleavage
1 | UACGUAGGUGGUUUUCCCCUGAUAGUGCUAAGGGGGCCUGGAAGUUUGGACUGGGCGGAGCUCAACACAGCGUGGCAAAGUGGCUGUGGCUAGACUGCCUCUCUGGAUUCCUCGUCACUCAGCAGGGCAUCUCUGAGCGAAAUGCC [A57G A138C] | 1.13
2 | UACGUAGGUGGUUUUCCCCUGAUAGUGCUAAGGGGGCCUGGAAGUUUGGACUGGGCGGAGCUCAACACAGCGUGGCAAAGUGGCUGUGGCUAGACUGCCUCUCUGGAUUCCUCGUCACUCAGCCGGGCAUCUCUGAGAGAAAUGCC [A57G A124C] | 0.91
3 | UACGUAGGUGGUUUUCCCCUGAUAGUGCUAAGGGGGCCUGGAAGUUUGGACUGGGCCGAGCUCAACACAGCGUGGCAAAGUGGCUGUGGCUAGACUGCCUCACUGGAUUCCUCGUCACUCAGCAGGGCAUCUCUGAGAGAAAUGCC [A57C U102A] | 0.06
4 | UACGUAGGUGGUUUUCCCCUGAUAGUGCUAAGGGGGCCUGGAAGUUUGGACUGGGCCGAGCUCAACACAGCGUGGCAAAGGGGCUGUGGCUAGACUGCCUCUCUGGAUUCCUCGUCACUCAGCAGGGCAUCUCUGAGAGAAAUGCC [A57C U81G] | 0.16
5 | UACGUAGGUGGUUUUCCCCUGAUAGUGCUAAGGGGGCCUGGAAGUUUGGACUGGGCCGAGCUCAACACAGCGUGGCAAAGCGGCUGUGGCUAGACUGCCUCUCUGGAUUCCUCGUCACUCAGCAGGGCAUCUCUGAGAGAAAUGCC [A57C U81C] | 0.04
6 | UACGUAGGUGGUUUUCCCCUGAUAGUGCUAAGGGGGCCUGGAAGUUUGGACUGGGCCGAGCUCAACACAGCGUGGCAAAGUGGCUGUGGCUAGACUGCCUCUCUGGAUUCCUCGUCACUCAGCAGGACAUCUCUGAGAGAAAUGCC [A57C G127A] | 0.03
7 | UACGUAGGUGGUUUUCCCCUGAUAGUGCUAAGGGGGCCUGGAAGUUUGGACUGGGCCGAGCUCAACACAGCGUGGCAAAGUGGCUGCGGCUAGACUGCCUCUCUGGAUUCCUCGUCACUCAGCAGGGCAUCUCUGAGAGAAAUGCC [A57C U87C] | 0
8 | UACGUAGGUGGUUUUCCCCUGAUAGUGCUAAGGGGGCCUGGAAGUUUGGACUGGGCCGAGCUCAACACAGCGUGGCAAAGUGGCUGUGGCUAGACUGCCUCUCUGGAUUCCCCGUCACUCAGCAGGGCAUCUCUGAGAGAAAUGCC [A57C U112C] | 0.08
9 | UACGUAGGUGGUUUUCCCCUGAUAGUGCUAAGGGGGCCUGGAAGUUUGGACUGGGCCGAGCUCAACACAGCGUGGCAAAGUGGCUGUGGCCAGACUGCCUCUCUGGAUUCCUCGUCACUCAGCAGGGCAUCUCUGAGAGAAAUGCC [A57C U91C] | 0
10 | UACGUAGGUGGUUUUCCCCUGAUAGUGCUAAGGGGGCCUGGAAGUUUGGACUGGGCGGAGCUCAACACAGCGUGGCAAAGUGGCUGUGGCUAGGCUGCCUCUCUGGAUUCCUCGUCACUCAGCAGGGCAUCUCUGAGAGAAAUGCC [A57G A94G] | 0.16
11 | UACGUAGGUGGUUUUCCCCUGAUAGUGCUAAGGGGGCCUGGAAGUUUGGACUGGGCGGGGCUCAACACAGCGUGGCAAAGUGGCUGUGGCUAGACUGCCUCUCUGGAUUCCUCGUCACUCAGCAGGGCAUCUCUGAGAGAAAUGCC [A57G A59G] | 0.62
12 | UACGUAGGUGGUUUUCCCCUGAUAGUGCUAAGGGGGCCUGGAAGUUUGGACUGGGCGGAGCUCAACACAGCGUGGCAAAGUGGCUGUGGCUAGACUGCCUCUCUGGAUUCCUCGUCACUCAGCAGGGCAUCUCUGAGAGAAUUGCC [A57G A142U] | 0.38
13 | UACGUAGGUGGUUUUCCCCUGAUAGUGCUAAGGGGGCCUGGAAGUUUGGACUGGGCGGAGCUCAACACAGCGUGGCAAAGUGGCUGUGGCUAGACUGCCUCUCUGGAUUCCUCGUCACUCAGCAGGGCAUCUCUGAGAGAAGUGCC [A57G A142G] | 0.84
14 | UACGUAGGUGGUUUUCCCCUGAUAGUGCUAAGGGGGCCUGGAAGUUUGGACUGGGCGGAGCUCAACACAGCGUGGCAAAGUGGCUGUGGCUAGACUGCCUCUCUGGAUUCCUCGUCUCUCAGCAGGGCAUCUCUGAGAGAAAUGCC [A57G A117U] | 0.79
15 | UACGUAGGUGGUUUUCCCCUGAUAGUGCUAAGGGGGCCUGGAAGUUUGGACUGGGCGGAGCUCAACACGGCGUGGCAAAGUGGCUGUGGCUAGACUGCCUCUCUGGAUUCCUCGUCACUCAGCAGGGCAUCUCUGAGAGAAAUGCC [A57G A69G] | 0.21
16 | UACGUAGGUGGUUUUCCCCUGAUAGUGCUAAGGGGGCCUGGAAGUUUGGACUGGGCCGAGCUCAACACAGCGUGGCAAAGUGGCUGUGGCUAGACUGCCUCUCUGGAUUCCUCGUCACUCAGCAGGGCACCUCUGAGAGAAAUGCC [A57C U130C] | 0.18
17 | UACGUAGGUGGUUUUCCCCUGAUAGUGCUAAGGGGGCCUGGAAGUUUGGACUGGGCGGAGCUCUACACAGCGUGGCAAAGUGGCUGUGGCUAGACUGCCUCUCUGGAUUCCUCGUCACUCAGCAGGGCAUCUCUGAGAGAAAUGCC [A57G A64U] | 0.3
18 | UACGUAGGUGGUUUUCCCCUGAUAGUGCUAAGGGGGCCUGGAAGUUUGGACUGGGCGGAGCUCGACACAGCGUGGCAAAGUGGCUGUGGCUAGACUGCCUCUCUGGAUUCCUCGUCACUCAGCAGGGCAUCUCUGAGAGAAAUGCC [A57G A64G] | 0.3
19 | UACGUAGGUGGUUUUCCCCUGAUAGUGCUAAGGGGGCCUGGAAGUUUGGACUGGGCGGAGCUCAACACAGCGUGGCAAAGUGGCUGUGGCUAGACUGCCUCUCUGGAUUCCUCGUCACUCAGCAGGGCAUCUCUGGGAGAAAUGCC [A57G A136G] | 1.33
20 | UACGUAGGUGGUUUUCCCCUGAUAGUGCUAAGGGGGCCUGGAAGUUUGGACUGGGCGGAGCUCAACACAGCGUGGCAAAGUGGCUGUGGCUAGACUGCCUCUCUGGGUUCCUCGUCACUCAGCAGGGCAUCUCUGAGAGAAAUGCC [A57G A107G] | 1.01

Row | Variant | self-cleavage
21 | UACGUAGGUGGUUUUCCCCUGAUAGUGCUAAGGGGGCCUGGAAGUUUGGACUGGGCGGAGCUCAACACAGCGUGGCAAAGUGGCUGUGGCUUGACUGCCUCUCUGGAUUCCUCGUCACUCAGCAGGGCAUCUCUGAGAGAAAUGCC [A57G A92U] | 0.3
22 | UACGUAGGUGGUUUUCCCCUGAUAGUGCUAAGGGGGCCUGGAAGUUUGGACUGGGCGGAGCUCAACACAGCGUGGCAAAGUGGCUGUGGCUGGACUGCCUCUCUGGAUUCCUCGUCACUCAGCAGGGCAUCUCUGAGAGAAAUGCC [A57G A92G] | 0.14
23 | UACGUAGGUGGUUUUCCCCUGAUAGUGCUAAGGGGGCCUGGAAGUUUGGACUGGGCGGAGCUCAACACAGCGUGGCAAAGUGGCUGUGGCUAGACUGCCUCUCUGGAUUCCUCGUCACUCAGCAGGGCCUCUCUGAGAGAAAUGCC [A57G A129C] | 1.33
24 | UACGUAGGUGGUUUUCCCCUGAUAGUGCUAAGGGGGCCUGGAAGUUUGGACUGGGCGGAGCUCAACACAGCGUGGCAAGGUGGCUGUGGCUAGACUGCCUCUCUGGAUUCCUCGUCACUCAGCAGGGCAUCUCUGAGAGAAAUGCC [A57G A79G] | 1.32
25 | UACGUAGGUGGUUUUCCCCUGAUAGUGCUAAGGGGGCCUGGAAGUUUGGACUGGGCGGAGCUCAACACAGCGUGGCAACGUGGCUGUGGCUAGACUGCCUCUCUGGAUUCCUCGUCACUCAGCAGGGCAUCUCUGAGAGAAAUGCC [A57G A79C] | 0.8
26 | UACGUAGGUGGUUUUCCCCUGAUAGUGCUAAGGGGGCCUGGAAGUUUGGACUGGGCGGAGCUCAACACAGCGUGGCAAAGUGGCUGUGGCUAGACUGCCUCUCUGGAUUCCUCGUCACUCAGCAGGGCAUCUCUGAGAGGAAUGCC [A57G A140G] | 0.91
27 | UACGUAGGUGGUUUUCCCCUGAUAGUGCUAAGGGGGCCUGGAAGUUUGGACUGGGCCGAGUUCAACACAGCGUGGCAAAGUGGCUGUGGCUAGACUGCCUCUCUGGAUUCCUCGUCACUCAGCAGGGCAUCUCUGAGAGAAAUGCC [A57C C61U] | 0.05
28 | UACGUAGGUGGUUUUCCCCUGAUAGUGCUAAGGGGGCCUGGAAGUUUGGACUGGGCGGAGCUCAACGCAGCGUGGCAAAGUGGCUGUGGCUAGACUGCCUCUCUGGAUUCCUCGUCACUCAGCAGGGCAUCUCUGAGAGAAAUGCC [A57G A67G] | 0.28
29 | UACGUAGGUGGUUUUCCCCUGAUAGUGCUAAGGGGGCCUGGAAGUUUGGACUGGGCCGAGCUCAACACAGCGUGGCAAAGUGGCUGUGGCUAGACUGCCUCUCUGGAUUCCUCGUCACUCAGCAGGGCAUCUCUGAGAGAAAAGCC [A57C U143A] | 0.22
30 | UACGUAGGUGGUUUUCCCCUGAUAGUGCUAAGGGGGCCUGGAAGUUUGGACUGGGCGGAGCUCAACACAGCGUGGCGAAGUGGCUGUGGCUAGACUGCCUCUCUGGAUUCCUCGUCACUCAGCAGGGCAUCUCUGAGAGAAAUGCC [A57G A77G] | 1.68
31 | UACGUAGGUGGUUUUCCCCUGAUAGUGCUAAGGGGGCCUGGAAGUUUGGACUGGGCGGAGCUCAACACAGCGUGGCUAAGUGGCUGUGGCUAGACUGCCUCUCUGGAUUCCUCGUCACUCAGCAGGGCAUCUCUGAGAGAAAUGCC [A57G A77U] | 0.58
32 | UACGUAGGUGGUUUUCCCCUGAUAGUGCUAAGGGGGCCUGGAAGUUUGGACUGGGCCGAGCUCAACACAGCGUGGCAAAGUGGCUGUGGCUAGACAGCCUCUCUGGAUUCCUCGUCACUCAGCAGGGCAUCUCUGAGAGAAAUGCC [A57C U96A] | 0.01
33 | UACGUAGGUGGUUUUCCCCUGAUAGUGCUAAGGGGGCCUGGAAGUUUGGACUGGGCCGAGCUCAACACAGCGUGGCAAAGUGGCUGUGGCUAGACCGCCUCUCUGGAUUCCUCGUCACUCAGCAGGGCAUCUCUGAGAGAAAUGCC [A57C U96C] | 0.08
34 | UACGUAGGUGGUUUUCCCCUGAUAGUGCUAAGGGGGCCUGGAAGUUUGGACUGGGCCGAGCUCAACACAGCGUGGCAAAGUGGCUGUGGCUAGACUGCCUCUCUGGAUUCCUCGUCACUCAGCAGGGCAUAUCUGAGAGAAAUGCC [A57C C131A] | 0.08
35 | UACGUAGGUGGUUUUCCCCUGAUAGUGCUAAGGGGGCCUGGAAGUUUGGACUGGGCGGAGCUCACCACAGCGUGGCAAAGUGGCUGUGGCUAGACUGCCUCUCUGGAUUCCUCGUCACUCAGCAGGGCAUCUCUGAGAGAAAUGCC [A57G A65C] | 0.05
36 | UACGUAGGUGGUUUUCCCCUGAUAGUGCUAAGGGGGCCUGGAAGUUUGGACUGGGCGGAGCUCAACACAGCGUGGCAAAGUGGCUGUGGCUAGACUGCCUCUCUGGAUUCCUCGUCACUCUGCAGGGCAUCUCUGAGAGAAAUGCC [A57G A121U] | 1
37 | UACGUAGGUGGUUUUCCCCUGAUAGUGCUAAGGGGGCCUGGAAGUUUGGACUGGGCGGAGCUCAACACAGCGUGGCAUAGUGGCUGUGGCUAGACUGCCUCUCUGGAUUCCUCGUCACUCAGCAGGGCAUCUCUGAGAGAAAUGCC [A57G A78U] | 1.62
38 | UACGUAGGUGGUUUUCCCCUGAUAGUGCUAAGGGGGCCUGGAAGUUUGGACUGGGCCGAGCUCAACACAGCGUGGCAAAGUGGCUGUGGCUAGACUGCCUCUCUGGAUUCCUCGUCACUCAGCAGGGCAUCUCUGAGAGAGAUGCC [A57C A141G] | 0.11
39 | UACGUAGGUGGUUUUCCCCUGAUAGUGCUAAGGGGGCCUGGAAGUUUGGACUGGGCCGAGCUCAACACAGCGUGGCAAAGUGGCUGUGGCUAGACUUCCUCUCUGGAUUCCUCGUCACUCAGCAGGGCAUCUCUGAGAGAAAUGCC [A57C G97U] | 0.04
